Measurements: doi:10.1101/2020.06.12.148387 (bioRxiv, 2020)

Target: T1, SARS-CoV-2 Spike ectodomain (pre-fusion, with proline mutations) (SARS-CoV-2, early reference strain …, residues 986 and 987 mutated to a Pro-Pro sequence)
T1 construct: also called pre-fusion Spike; trimeric Spike
Assay: cryo-EM structure
Conditions: both partners purified

B1: EY6A Fab (digested from IgG with papain) (Fab, V domains shown)
VH: EVQLVESGGGVVQPGRSLRLSCAASAFTFSSYDMHWVRQAPGKGLEWVAVISYDGSNKYYADSVKGRFTISRDNSKNTLYLQMNSLRAEDTAVYYCAKDGGKLWVYYFDYWGQGTLVTVSS
VL: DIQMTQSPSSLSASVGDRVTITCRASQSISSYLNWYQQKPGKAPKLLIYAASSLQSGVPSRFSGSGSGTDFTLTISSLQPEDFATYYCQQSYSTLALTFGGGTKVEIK
notes: also called Fab-EY6A; source: digested from ExpiCHO-made IgG with papain (Pierce Fab Preparation Kit)
- stoichiometry N: 3 Fabs per Spike trimer
